For this series the following is noted: Rattus norvegicus, pH 7, Thermal, CD, HEPES 10 mM, whole UniProt chain shown.

B1: High mobility group protein B1 wild type, P63159 (protein)
chain: MGKGDPKKPRGKMSSYAFFVQTCREEHKKKHPDASVNFSEFSKKCSERWKTMSAKEKGKFEDMAKADKARYEREMKTYIPPKGETKKKFKDPNAPKRPPSAFFLFCSEYRPKIKGEHPGLSIGDVAKKLGEMWNNTAADDKQPYEKKAAKLKEKYEKDIAAYRAKGKPDAAKKGVVKAEKSKKKKEEEDDEEDEEDEEEEEEEEDEDEEEDDDDE
Regarding B1, the Tm worked out at 40.6 °C and the “unfolding enthalpy (van 't Hoff)” value was 35.7 kcal/mol. For the same protein, the unfolding free energy (20 °C, NiSO4 1 mM) was 2.7 kcal/mol. Besides, where the note is “NiSO4 1 mM”, the Tm was 40.6 °C and the “unfolding enthalpy (van 't Hoff)” value was 35.7 kcal/mol.

Values taken from FireProtDB (doi:10.1093/protein/15.10.817).
